B1: truncated Bpa variant lacking the flexible N- and C-terminal segments (Bpa36-139) (domain or fragment)
chain: SLTDLVEQPAKVMRIGTMIKQLLEEVRAAPLDEASRNRLRDIHATSIRELEDGLAPELREELDRLTLPFNEDAVPSDAELRIAQAQLVGWLEGLFHGIQTALFA
notes: Dodecameric ring; also called substrate-captured Bpa; copies: 12
B2: bacterial proteasome activator Bpa, full-length, wild-type (natural protein)
chain: MVIGLSTGSDDDDVEVIGGVDPRLIAVQENDSDESSLTDLVEQPAKVMRIGTMIKQLLEEVRAAPLDEASRNRLRDIHATSIRELEDGLAPELREELDRLTLPFNEDAVPSDAELRIAQAQLVGWLEGLFHGIQTALFAQQMAARAQLQQMRQGALPPGVGKSGQHGHGTGQYL
notes: also called wild-type Bpa ring; Bpa12; copies: 12

Key:
[1] = molecular target: the molecule itself; test: cross-linking + SEC
[2] = molecular target: the molecule itself; test: negative stain EM
[3] = molecular target: T1, 20S CP α-subunit (M. tuberculosis H37Rv, UniProt P9WHU1 1-248); test: cryo-EM structure; conditions: both partners purified
T1 construct: also called proteasomal α-subunits; α-ring
T1 sequence (P9WHU1 whole entry): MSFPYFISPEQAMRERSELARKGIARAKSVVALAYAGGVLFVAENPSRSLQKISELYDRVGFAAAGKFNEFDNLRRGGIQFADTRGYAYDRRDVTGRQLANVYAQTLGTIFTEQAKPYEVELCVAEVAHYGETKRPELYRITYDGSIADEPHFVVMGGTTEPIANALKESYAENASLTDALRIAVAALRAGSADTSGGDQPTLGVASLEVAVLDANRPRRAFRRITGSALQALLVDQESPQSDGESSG

Row | Binder | stoichiometry N [1] | stoichiometry N [2] | binding result [3]
1 | B1 | 12 | 24 | 
2 | B2 |  |  | binds
